According to patent US20220010021A1 (Sanofi, published 2022):
Numbering of substitutions follows the chain as printed. Numbers in names are those of the source.

T1: beta-Klotho (KLB) (Homo sapiens (Human), UniProt Q86Z14 1-996)
T1 construct: also called β-Klotho; not shown: C-terminal His tag of the bought R&D Systems protein
T1 sequence: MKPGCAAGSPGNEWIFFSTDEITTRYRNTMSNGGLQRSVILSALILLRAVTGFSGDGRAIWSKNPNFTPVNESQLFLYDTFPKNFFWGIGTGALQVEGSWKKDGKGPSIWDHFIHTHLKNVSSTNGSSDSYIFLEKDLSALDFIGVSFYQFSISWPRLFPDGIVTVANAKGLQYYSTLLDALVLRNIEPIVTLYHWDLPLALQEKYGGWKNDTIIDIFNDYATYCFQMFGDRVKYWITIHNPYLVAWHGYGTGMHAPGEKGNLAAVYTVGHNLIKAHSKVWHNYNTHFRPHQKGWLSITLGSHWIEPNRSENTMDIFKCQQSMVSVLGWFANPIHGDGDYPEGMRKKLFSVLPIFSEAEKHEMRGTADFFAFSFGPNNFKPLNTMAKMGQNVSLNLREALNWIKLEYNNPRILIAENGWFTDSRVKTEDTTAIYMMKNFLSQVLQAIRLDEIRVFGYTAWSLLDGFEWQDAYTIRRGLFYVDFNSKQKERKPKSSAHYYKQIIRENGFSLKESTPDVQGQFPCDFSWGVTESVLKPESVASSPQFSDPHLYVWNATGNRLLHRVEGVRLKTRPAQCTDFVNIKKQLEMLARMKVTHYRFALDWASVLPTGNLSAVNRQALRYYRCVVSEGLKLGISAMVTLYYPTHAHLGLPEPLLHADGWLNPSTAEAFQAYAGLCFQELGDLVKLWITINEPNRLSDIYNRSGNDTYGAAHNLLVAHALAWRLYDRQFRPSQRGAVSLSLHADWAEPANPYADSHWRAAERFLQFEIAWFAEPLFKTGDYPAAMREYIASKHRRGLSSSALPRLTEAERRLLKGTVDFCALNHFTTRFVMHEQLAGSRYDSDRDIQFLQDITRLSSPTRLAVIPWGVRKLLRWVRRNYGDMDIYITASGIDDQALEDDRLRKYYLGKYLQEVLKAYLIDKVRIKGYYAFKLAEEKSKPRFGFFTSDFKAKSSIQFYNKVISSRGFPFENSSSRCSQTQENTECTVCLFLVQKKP

T2: human beta-Klotho (KLB) (human, UniProt Q86Z14 53-997)
T2 construct: the BLI off-rate screen was run with human and with monkey KLB; also called human KLB; ß-Klotho
T2 sequence (looked up): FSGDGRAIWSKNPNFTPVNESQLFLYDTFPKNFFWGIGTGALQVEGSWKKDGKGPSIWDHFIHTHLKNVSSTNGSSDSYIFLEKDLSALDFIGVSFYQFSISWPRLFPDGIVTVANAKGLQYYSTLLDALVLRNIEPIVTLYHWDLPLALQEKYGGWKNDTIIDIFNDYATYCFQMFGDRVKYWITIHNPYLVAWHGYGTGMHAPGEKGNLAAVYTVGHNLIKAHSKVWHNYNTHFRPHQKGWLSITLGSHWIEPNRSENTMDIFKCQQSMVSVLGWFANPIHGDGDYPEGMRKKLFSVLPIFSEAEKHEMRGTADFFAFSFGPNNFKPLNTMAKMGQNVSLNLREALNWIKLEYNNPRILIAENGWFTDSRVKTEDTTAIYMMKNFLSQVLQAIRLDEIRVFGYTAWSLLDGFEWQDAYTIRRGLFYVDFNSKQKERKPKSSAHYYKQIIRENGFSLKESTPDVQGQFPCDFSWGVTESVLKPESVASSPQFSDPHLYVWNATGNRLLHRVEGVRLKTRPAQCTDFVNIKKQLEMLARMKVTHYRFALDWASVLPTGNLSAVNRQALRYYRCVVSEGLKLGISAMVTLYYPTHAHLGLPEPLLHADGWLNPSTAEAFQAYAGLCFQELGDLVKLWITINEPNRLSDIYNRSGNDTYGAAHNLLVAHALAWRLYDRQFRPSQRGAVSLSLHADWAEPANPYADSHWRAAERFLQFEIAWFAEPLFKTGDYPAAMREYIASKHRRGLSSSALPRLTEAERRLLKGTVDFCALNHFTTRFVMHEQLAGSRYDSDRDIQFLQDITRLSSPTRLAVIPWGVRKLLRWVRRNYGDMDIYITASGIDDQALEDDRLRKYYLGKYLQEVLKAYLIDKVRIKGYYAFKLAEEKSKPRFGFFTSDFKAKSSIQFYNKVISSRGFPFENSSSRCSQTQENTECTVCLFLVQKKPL

B1: 16H7 variant with light chain substitution S94R (antibody, human IgG4 S228P, lambda, V domains shown)
VH: not shown
VL: SYVLTQPPSVSVAPGQTARITCGGNNIGSESVHWYQQKPGQAPVLVVYDDSDRPSGIPERFSGSNSGNTATLTISRVEAGDEADYYCQVWDGNRDHVVFGGGTKLTVLG
notes: IgG4 backbone was used
B2: 16H7 variant with light chain substitution S94T (antibody, human IgG4 S228P, lambda, V domains shown)
VH: not shown
VL: B1 VL with R94T
notes: IgG4 backbone was used
B3: 16H7 variant with light chain substitution S94V (antibody, human IgG4 S228P, lambda, V domains shown)
VH: not shown
VL: B1 VL with R94V
notes: IgG4 backbone was used
B4: 16H7 variant with light chain substitution S94W (antibody, human IgG4 S228P, lambda, V domains shown)
VH: not shown
VL: B1 VL with R94W
notes: IgG4 backbone was used
B5: 16H7 variant with light chain substitution S94Y (antibody, human IgG4 S228P, lambda, V domains shown)
VH: not shown
VL: B1 VL with R94Y
notes: IgG4 backbone was used
B6: 16H7 variant with light chain substitution V97C (antibody, human IgG4 S228P, lambda, V domains shown)
VH: not shown
VL: B1 VL with R94S, V97C
notes: IgG4 backbone was used
B7: 16H7 variant with light chain substitution V97F (antibody, human IgG4 S228P, lambda, V domains shown)
VH: not shown
VL: B1 VL with R94S, V97F
notes: IgG4 backbone was used
B8: 16H7 variant with light chain substitution V97I (antibody, human IgG4 S228P, lambda, V domains shown)
VH: not shown
VL: B1 VL with R94S, V97I
notes: IgG4 backbone was used
B9: 16H7 variant with light chain substitution V97L (antibody, human IgG4 S228P, lambda, V domains shown)
VH: not shown
VL: B1 VL with R94S, V97L
notes: IgG4 backbone was used
B10: 16H7 variant with light chain substitution V97M (antibody, human IgG4 S228P, lambda, V domains shown)
VH: not shown
VL: B1 VL with R94S, V97M
notes: IgG4 backbone was used
B11: 16H7 variant with light chain substitution V97N (antibody, human IgG4 S228P, lambda, V domains shown)
VH: not shown
VL: B1 VL with R94S, V97N
notes: IgG4 backbone was used
B12: 16H7 variant with light chain substitution V97T (antibody, human IgG4 S228P, lambda, V domains shown)
VH: not shown
VL: B1 VL with R94S, V97T
notes: IgG4 backbone was used
B13: 16H7 variant with light chain substitution V98C (antibody, human IgG4 S228P, lambda, V domains shown)
VH: not shown
VL: B1 VL with R94S, V98C
notes: IgG4 backbone was used
B14: 16H7 variant with light chain substitution V98F (antibody, human IgG4 S228P, lambda, V domains shown)
VH: not shown
VL: B1 VL with R94S, V98F
notes: IgG4 backbone was used
B15: 16H7 variant with light chain substitution V98I (antibody, human IgG4 S228P, lambda, V domains shown)
VH: not shown
VL: B1 VL with R94S, V98I
notes: IgG4 backbone was used
B16: 16H7 variant with light chain substitution V98M (antibody, human IgG4 S228P, lambda, V domains shown)
VH: not shown
VL: B1 VL with R94S, V98M
notes: IgG4 backbone was used
B17: 16H7 variant with light chain substitution V98N (antibody, human IgG4 S228P, lambda, V domains shown)
VH: not shown
VL: B1 VL with R94S, V98N
notes: IgG4 backbone was used
B18: 16H7 variant with light chain substitution V98P (antibody, human IgG4 S228P, lambda, V domains shown)
VH: not shown
VL: B1 VL with R94S, V98P
notes: IgG4 backbone was used
B19: 16H7 variant with light chain substitution V98Q (antibody, human IgG4 S228P, lambda, V domains shown)
VH: not shown
VL: B1 VL with R94S, V98Q
notes: IgG4 backbone was used
B20: 16H7 variant with single point mutation V98S in the light chain (antibody, V domains shown)
VH: not shown
VL: B1 VL with R94S, V98S
notes: Tested from HEK293-F supernatant
B21: 16H7 variant with single point mutation V98A in the light chain (antibody, V domains shown)
VH: not shown
VL: B1 VL with R94S, V98A
notes: as for B20
B22: 16H7 variant with single point mutation V98G in the light chain (antibody, V domains shown)
VH: not shown
VL: B1 VL with R94S, V98G
notes: as for B20
B23: 16H7 variant with single point mutation V98H in the light chain (antibody, V domains shown)
VH: not shown
VL: B1 VL with R94S, V98H
notes: as for B20
B24: 16H7 variant with single point mutation V98K in the light chain (antibody, V domains shown)
VH: not shown
VL: B1 VL with R94S, V98K
notes: as for B20
B25: 16H7 variant with single point mutation V98L in the light chain (antibody, V domains shown)
VH: not shown
VL: B1 VL with R94S, V98L
notes: as for B20
B26: 16H7 variant with single point mutation V98Q in the light chain (antibody, V domains shown)
VH: not shown
VL: B1 VL with R94S, V98Q
notes: as for B20
B27: 16H7 variant with single point mutation V98R in the light chain (antibody, V domains shown)
VH: not shown
VL: B1 VL with R94S, V98R
notes: as for B20

Key:
[1] = target: cell surface receptor composed of the tyrosine kinase receptor FGFR1c and co-receptor beta-Klotho (KLB) (human, UniProt P11362 22-822; Q86Z14 1-1044); assay: cell-based or functional assay
Sequence of cell surface receptor composed of the tyrosine kinase receptor FGFR1c and co-receptor beta-Klotho (KLB) (P11362 22-822, one chain of several): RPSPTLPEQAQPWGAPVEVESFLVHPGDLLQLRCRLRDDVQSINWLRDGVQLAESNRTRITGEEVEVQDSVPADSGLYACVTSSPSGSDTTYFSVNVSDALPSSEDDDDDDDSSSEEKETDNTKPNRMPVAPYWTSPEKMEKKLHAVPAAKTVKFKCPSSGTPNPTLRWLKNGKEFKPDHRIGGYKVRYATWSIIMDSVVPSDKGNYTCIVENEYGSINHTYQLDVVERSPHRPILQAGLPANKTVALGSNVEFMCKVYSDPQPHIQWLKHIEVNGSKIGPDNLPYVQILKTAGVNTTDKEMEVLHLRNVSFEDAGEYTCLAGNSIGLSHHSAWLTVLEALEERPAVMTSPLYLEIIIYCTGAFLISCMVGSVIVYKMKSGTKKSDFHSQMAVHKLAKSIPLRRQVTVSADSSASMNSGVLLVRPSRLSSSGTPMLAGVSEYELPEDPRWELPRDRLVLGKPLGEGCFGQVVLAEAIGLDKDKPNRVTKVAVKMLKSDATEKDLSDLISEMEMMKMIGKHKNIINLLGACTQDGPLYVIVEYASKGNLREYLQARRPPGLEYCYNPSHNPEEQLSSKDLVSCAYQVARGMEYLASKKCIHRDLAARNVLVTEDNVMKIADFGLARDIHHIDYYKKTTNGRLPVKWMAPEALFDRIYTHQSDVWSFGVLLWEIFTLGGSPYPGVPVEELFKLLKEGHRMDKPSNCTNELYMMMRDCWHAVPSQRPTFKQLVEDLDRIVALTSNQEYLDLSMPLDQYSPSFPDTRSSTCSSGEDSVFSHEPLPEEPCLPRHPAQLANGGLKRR

beta-Klotho (KLB) = target: T1, beta-Klotho (KLB); assay: BLI (Octet) off-rate screening, mAb from supernatant on anti-hIgG Fc sensor, 5 nmol/L KLB;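 also: dissociation followed for 1800 s in D-PBS plus 0.1% BSA, antibody supernatants applied at 25 µg/mL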
[2] = target: cell-surface receptor complex of human FGFR1c and beta-Klotho (KLB) on iLite FGF21 reporter cells (human, UniProt P11362 22-822; Q86Z14 1-1044); assay: cell-based or functional assay
Sequence of cell-surface receptor complex of human FGFR1c and beta-Klotho (KLB) on iLite FGF21 reporter cells (P11362 22-822, one chain of several): as above

human beta-Klotho (KLB) = target: T2, human beta-Klotho (KLB); assay: BLI off-rate screening (Octet HTX), antibody from supernatant on anti-hIgG Fc capture sensors, KLB 5 nmol/L as analyte

| Binder | Mean E max, Luciferase gene reporter assay [1] [%] | Mean EC50, Luciferase gene reporter assay [1] [nM] | koff (beta-Klotho (KLB)) [s⁻¹] | Mean E max (%), Luciferase gene reporter assay [2] [%] | Mean EC50 (nM), Luciferase gene reporter assay [2] [nM] | koff (human beta-Klotho (KLB)) [s⁻¹] |
| --- | --- | --- | --- | --- | --- | --- |
| B1 | 104 | 0.123 | 5.7e-05 | – | – | – |
| B2 | 109 | 0.116 | 3.2e-05 | – | – | – |
| B3 | 108 | 0.119 | 2.8e-05 | – | – | – |
| B4 | 103 | 0.159 | 4.3e-05 | – | – | – |
| B5 | 100 | 0.098 | 6.2e-05 | – | – | – |
| B6 | 104 | 0.19 | 0.00023 | – | – | – |
| B7 | 45 | 3.02 | 2.1e-05 | – | – | – |
| B8 | 110 | 0.12 | 1.7e-05 | – | – | – |
| B9 | 110 | 0.129 | 5.9e-05 | – | – | – |
| B10 | 103 | 0.214 | 3.3e-05 | – | – | – |
| B11 | 95 | 0.206 | 0.00033 | – | – | – |
| B12 | 99 | 0.142 | 0.0001 | – | – | – |
| B13 | 100 | 0.105 | 6.4e-05 | – | – | – |
| B14 | 102 | 0.161 | 1.6e-05 | – | – | – |
| B15 | 116 | 0.105 | 3.3e-05 | – | – | – |
| B16 | 108 | 0.114 | 7.2e-05 | – | – | – |
| B17 | 112 | 0.111 | 2.1e-05 | – | – | – |
| B18 | 89 | 0.131 | 7.3e-05 | – | – | – |
| B19 | 111 | 0.121 | 3.7e-05 | – | – | – |
| B20 | – | – | – | 107 | 0.094 | 3.9e-05 |
| B21 | – | – | – | 99 | 0.139 | 4.6e-05 |
| B22 | – | – | – | 105 | 0.118 | 1.1e-05 |
| B23 | – | – | – | 103 | 0.107 | 1.8e-05 |
| B24 | – | – | – | 106 | 0.111 | 9e-05 |
| B25 | – | – | – | 105 | 0.121 | 0.00013 |
| B26 | – | – | – | 111 | 0.121 | 3.7e-05 |
| B27 | – | – | – | 99 | 0.099 | 0.00011 |
